Results on 73 sequences are retold here after the supplement of paper PMC10724198.

± gives the standard deviation of the averaged measurements.

Data set [1] relates to Saccharomyces cerevisiae. The data set can be described thus: protein stability index of tFT-peptide fusion in wild type (PSI (0-1 scale)); higher = more stable (slower turnover). Particulars: genetic background: wild type. The procedure: (§1)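 MPS profiling in S. cerevisiae of two library types built from selected 12-aa C-degron peptides (IN1, IN2, LN1, LN3, VN2, R1-R5, W1-W3, Atg1 and Rpa12 C-termini): saturation mutagenesis libraries and C-terminal +1 capping libraries (13 aa). Each peptide is fused to the C-terminus of a sfGFP-mCherry timer, after a GGGS linker. Cells are FACS-sorted into 8 mCherry/sfGFP bins and sequenced. PSI runs from 0 (unstable) to 1 (stable), measured once in wild type and in the das1Δ or doa10Δ background.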

Data set [2] relates to Saccharomyces cerevisiae. The data set can be described thus: protein stability index of tFT-peptide fusion in deletion strain of DAS1 (PSI (0-1 scale)); higher = more stable (slower turnover). As to the method: as §1
The test system of data set [3] is Saccharomyces cerevisiae. The data set can be described thus: protein stability index of tFT-peptide fusion (C-terminal peptide) (PSI (0-1 scale)); higher = more stable (slower turnover). The conditions noted are these: temperature: 30 C. The procedure:
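MPS profiling in S. cerevisiae of the yeast C-terminome library: the last 12 aa of each annotated ORF are fused to the C-terminus of a sfGFP-mCherry timer, after a GGGS linker. Cells are FACS-sorted into 8 mCherry/sfGFP bins and deep-sequenced. PSI runs from 0 (unstable) to 1 (stable); wild type and das1Δ backgrounds, two technical replicates each.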

[4] abbreviates: genetic background: das1 deletion.
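Throughout, for protein stability index of tFT-peptide fusion in deletion strain of DAS1: PSI is a weighted mean of each variant's read distribution over the sorted stability bins, computed only for variants having over 10 reads in total.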
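Throughout, for protein stability index of tFT-peptide fusion in wild type: PSI derived as read-weighted mean over the 8 sorting bins, only variants exceeding 10 total reads kept, mCherry placed adjacent to the peptide and sfGFP distal.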

For the sequence AKHKKGQKQKIN, the figures for the protein stability index in data set [1] and in data set [2] were 0.11 and 0.829, respectively.
In the case of ARCRVGLWRGAS, the protein stability index in data set [1] was determined as 0.597; in data set [2], 0.706.
As to ARQRVGLWRGAS, the protein stability index stood at 0.6 in data set [1] and 0.694 in data set [2].
For ARWEVGLWRGAS the same measures were 0.458 and 0.648.
For ARWRCGLWRGAS the same measures were 0.574 and 0.695.
With ARWRNGLWRGAS, the protein stability index in data set [1] was 0.658; in data set [2], 0.701.
For ARWRVFLWRGAS, in that order: 0.432 and 0.674.
For ARWRVGEWRGAS the same measures were 0.677 and 0.684.
ARWRVGHWRGAS: the results for the protein stability index in data set [1] and in data set [2] were 0.582 and 0.703, respectively.
With ARWRVGLDRGAS, the protein stability index in data set [1] came to 0.665; in data set [2], 0.687.
For ARWRVGLWCGAS, in that order: 0.567 and 0.561.
With ARWRVGLWNGAS, the protein stability index in data set [1] amounted to 0.634; in data set [2] it was 0.664.
For ARWRVGLWRGAL, in that order: 0.596 and 0.682.
For ARWRVGLWRGAN, in that order: 0.121 and 0.687.
For ARWRVGLWRGAP, in that order: 0.662 and 0.681.
With ARWRVGLWRGASA, the protein stability index in data set [1] amounted to 0.665; in data set [2], 0.672.
For ARWRVGLWRGASV the same measures were 0.675 and 0.676.
On to ARWRVGLWRGAT, for which the protein stability index was found to be 0.447 in data set [1] and 0.683 in data set [2].
As to ARWRVGLWRGES, the protein stability index amounted to 0.681 in data set [1] and 0.695 in data set [2].
For ARWRVGLWRGGS, in that order: 0.672 and 0.684.
In the case of ARWRVGLWRGVS, the protein stability index is 0.122 in data set [1] and 0.689 in data set [2].
Consider ARWRVGLWRRAS, for which the protein stability index in data set [1] came out at 0.093; in data set [2], 0.673.
For ARWRVGLWWGAS the same measures were 0.556 and 0.679.
Consider ARWRVHLWRGAS, for which the protein stability index in data set [1] is 0.294; in data set [2] it was 0.695.
For ARWRVILWRGAS the same measures were 0.496 and 0.627.
ARWRYGLWRGAS: the protein stability index was determined as 0.489 in data set [1] and 0.678 in data set [2].
For AWWRVGLWRGAS the same measures were 0.504 and 0.68.
AYWRVGLWRGAS: the figures for the protein stability index in data set [1] and in data set [2] were 0.449 and 0.699, respectively.
For the sequence CFSCGYKFRTNN, the protein stability index in data set [1] stood at 0.188; in data set [2] it was 0.682.
For CKILRQKMNHQN the same measures were 0.165 and 0.675.
For CTFCGYKFRTNN the same measures were 0.253 and 0.719.
For CTSCGYCFRTNN, in that order: 0.261 and 0.7.
Consider CTSCGYFFRTNN, for which the results for the protein stability index in data set [1] and in data set [2] were 0.222 and 0.695, respectively.
For CTSCGYIFRTNN, in that order: 0.233 and 0.706.
For CTSCGYKARTNN the same measures were 0.623 and 0.686.
For CTSCGYKFRTAN, in that order: 0.27 and 0.673.
For CTSCGYKFRTNC, the protein stability index was 0.224 in data set [1] and 0.699 in data set [2].
Regarding CTSCGYKFRTNP, the results for the protein stability index in data set [1] and in data set [2] were 0.689 and 0.701, respectively.
On to VTSKSALESIFP [YGP1 C-terminal 12 aa], for which the protein stability index in data set [3] (setting [4]) worked out at 0.73 ± 0.0083; in data set [3] (genetic background: wild type), 0.678 ± 0.031.
For VVLSYSMVGSVM [MAY24 C-terminal 12 aa] the same measures were 0.4645 ± 0.0021 and 0.474 ± 0.026.
For VVVCRLHFSLPV [YKL111C C-terminal 12 aa], in that order: 0.562 ± 0.0059 and 0.57 ± 0.012.
Turning to VVYYHMVCKNIT [YHR125W C-terminal 12 aa], the protein stability index turned out to be 0.5662 ± 0.0017 in data set [3] (setting [4]) and 0.573 ± 0.038 in data set [3] (genetic background: wild type).
Consider VWNTFYKLGKRV [TMT1 C-terminal 12 aa], for which the protein stability index in data set [3] (setting [4]) turned out to be 0.7048 ± 0.0066; in data set [3] (genetic background: wild type), 0.6583 ± 0.0029.
For VYDYQYIYKGKQ [SIA1 C-terminal 12 aa], in that order: 0.701 ± 0.016 and 0.698 ± 0.016.
For VYTSKTRYRFAV [YHR210C C-terminal 12 aa], in that order: 0.7137 ± 0.0024 and 0.578 ± 0.012.
Consider WEHLHSGFSKNK [ELG1 C-terminal 12 aa], for which the protein stability index is 0.723 ± 0.012 in data set [3] (setting [4]) and 0.716 ± 0.019 in data set [3] (genetic background: wild type).
For WKKFLKFSKGSD [HXT17 C-terminal 12 aa], in that order: 0.696 ± 0.0084 and 0.703 ± 0.099.
As to WKQGGGDFRTKK [RBA50 C-terminal 12 aa], the protein stability index in data set [3] (setting [4]) stood at 0.709 ± 0.022; in data set [3] (genetic background: wild type), 0.667 ± 0.033.
For WLDCTTLPNYQG [KAP122 C-terminal 12 aa], in that order: 0.7222 ± 0.0061 and 0.707 ± 0.028.
For the sequence WNLQTLAADDAF [RPB11 C-terminal 12 aa], the protein stability index in data set [3] (setting [4]) came out at 0.765 ± 0.03; in data set [3] (genetic background: wild type) it was 0.729 ± 0.049.
For “WYNPSNQTYKSK [YLR222C-A C-terminal 12 aa]” the same measures were 0.719 ± 0.038 and 0.727 ± 0.071.
In the case of YAVSELEGPMLD [CSC1 C-terminal 12 aa], the protein stability index in data set [3] (setting [4]) was 0.7 ± 0.016; in data set [3] (genetic background: wild type), 0.6479 ± 0.0011.
For YCLFEKPTETTN [ALG9 C-terminal 12 aa], in that order: 0.736 ± 0.029 and 0.695 ± 0.061.
YDYNSKNSRGFY [DEF1 C-terminal 12 aa]: the protein stability index in data set [3] (setting [4]) was determined as 0.6999 ± 0.0051; in data set [3] (genetic background: wild type), 0.676 ± 0.033.
YFKETLYKLANE [HIS5 C-terminal 12 aa]: the protein stability index in data set [3] (setting [4]) came out at 0.687 ± 0.023; in data set [3] (genetic background: wild type) it was 0.705 ± 0.085.
Regarding YFLAERERINNH [PEX4 C-terminal 12 aa], the protein stability index was 0.721 ± 0.0079 in data set [3] (setting [4]) and 0.694 ± 0.01 in data set [3] (genetic background: wild type).
Turning to YGCIALTVVFIL [YAR069C C-terminal 12 aa], the results for the protein stability index in data set [3] (setting [4]) and in data set [3] (genetic background: wild type) were 0.232 ± 0.0061 and 0.223 ± 0.0052, respectively.
For YISKAGSYEVRY [APM4 C-terminal 12 aa], in that order: 0.68349 ± 0.00019 and 0.666 ± 0.03.
Regarding YKASGSYLEKYF [YPK3 C-terminal 12 aa], the protein stability index in data set [3] (setting [4]) was 0.7123 ± 0.0023; in data set [3] (genetic background: wild type), 0.6863 ± 0.00092.
For the sequence YKKVQWAKVLEQ [SFG1 C-terminal 12 aa], the protein stability index was determined as 0.709 ± 0.022 in data set [3] (setting [4]) and 0.7255 ± 0.0061 in data set [3] (genetic background: wild type).
For YKLFKFLTRERS [BNA4 C-terminal 12 aa], in that order: 0.7081 ± 0.0051 and 0.657 ± 0.018.
For YKNKVGVGIPFI [STE14 C-terminal 12 aa], in that order: 0.728 ± 0.019 and 0.7065 ± 0.0057.
For YKQVSSHNSHSQ [CUP2 C-terminal 12 aa] the same measures were 0.68 ± 0.034 and 0.691 ± 0.014.
As to YLEAFQWLSQYI [SAR1 C-terminal 12 aa], the protein stability index in data set [3] (setting [4]) was determined as 0.7969 ± 0.0076; in data set [3] (genetic background: wild type) it was 0.7631 ± 0.0025.
With YLLGIYRDNKKC [ALG5 C-terminal 12 aa], the results for the protein stability index in data set [3] (setting [4]) and in data set [3] (genetic background: wild type) were 0.727 ± 0.0028 and 0.6693 ± 0.0016, respectively.
For YNINHRKSVNSV [TDA9 C-terminal 12 aa], in that order: 0.706 ± 0.0094 and 0.6634 ± 0.0026.
YNSELVATKDIQ [PNT1 C-terminal 12 aa]: the figures for the protein stability index in data set [3] (setting [4]) and in data set [3] (genetic background: wild type) were 0.703 ± 0.012 and 0.7242 ± 0.0066, respectively.
With “YSELCIIVGTYY [YDR003W-A C-terminal 12 aa]”, the values for the protein stability index in data set [3] (setting [4]) and in data set [3] (genetic background: wild type) were 0.431 ± 0.012 and 0.439 ± 0.036, respectively.
Take YSLYRSRSKEAF [SAP190 C-terminal 12 aa]: the results for the protein stability index in data set [3] (setting [4]) and in data set [3] (genetic background: wild type) were 0.714 ± 0.048 and 0.692 ± 0.0071, respectively.
For YVRFYRGKLNNP [YOL036W C-terminal 12 aa], in that order: 0.704 ± 0.022 and 0.7 ± 0.024.
For YWALGVALTGSK [YDR417C C-terminal 12 aa], in that order: 0.6933 ± 0.0046 and 0.693 ± 0.029.
For YWRKQYPDADLP [YAR028W C-terminal 12 aa], in that order: 0.714 ± 0.015 and 0.695 ± 0.033.
As for “YYNLKNCITSET [YHR050W-A C-terminal 12 aa]”, the results for the protein stability index in data set [3] (setting [4]) and in data set [3] (genetic background: wild type) were 0.661 ± 0.007 and 0.6465 ± 0.0017, respectively.
